B1: F1*; the commonest letter at each place (parent)
chain: GAGACCGCAACTGAAAAGTTGTTATCACTTGTCGTAAGACACTTTGGATGGGTTGAAGTTCTGCACGTAGAAGCAAAAGGC

Variants of: B1
Assay: fraction ligated after 30 min (ligated reads / total reads); higher = more ligase activity
Conditions: with F1*sub RNA substrate (template-directed ligation), 42 °C
Procedure, shortened: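 Oligo-pool templates of ligase ribozyme variants were PCR-amplified, T7-transcribed and gel-purified. Ligated and unligated bands were gel-separated, reverse transcribed with barcoded primers, and MiSeq-sequenced; core bases were filtered at quality ≥20. Fraction ligated per variant was ligated reads over total reads.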

| Variant | fraction ligated |
| --- | --- |
| GAGACCGCAACTGAAAAGTTGTTATCACTTGTCGTAAGACAACTTGGATGGGTTGAAGTTCTGCACGTAGAAGCAAAAGGC [C42A T43C] | 0.825 |
| GAGACCGCAACTGAAAAGTTGTTATCACTTGTCGTAAGACAAGTTGGATGGGTTGAAGTTCTGCACGTAGAAGCAAAAGGC [C42A T43G] | 0.805 |
| GAGACCGCAACTGAAAAGTTGTTATCACTTGTCGTAAGACAGTTTGGATGGGTTGAAGTTCTGCACGTAGAAGCAAAAGGC [C42G] | 0.854 |
| GAGACCGCAACTGAAAAGTTGTTATCACTTGTCGTAAGACATTTTGGATGGGTTGAAGTTCTGCACGTAGAAGCAAAAGGC [C42T] | 0.856 |
| GAGACCGCAACTGAAAAGTTGTTATCACTTGTCGTAAGACAGTTTGGAGGGGTTGAAGTTCTGCACGTAGAAGCAAAAGGC [C42G T49G] | 0.777 |
| GAGACCGCAACTGAAAAGTTGTTATCACTTGTCGTAAGACAGTTTGGAAGGGTTGAAGTTCTGCACGTAGAAGCAAAAGGC [C42G T49A] | 0.79 |
| GAGACCGCAACTGAAAAGTTGTTATCACTTGTCGTAAGACAGTTTGGACGGGTTGAAGTTCTGCACGTAGAAGCAAAAGGC [C42G T49C] | 0.727 |
| GAGACCGCAACTGAAAAGTTGTTATCACTTGTCGTAAGACAGTTTGGATGGGTTTAAGTTCTGCACGTAGAAGCAAAAGGC [C42G G55T] | 0.809 |
| GAGACCGCAACTGAAAAGTTGTTATCACTTGTCGTAAGACAGTTTGGATGGGTTCAAGTTCTGCACGTAGAAGCAAAAGGC [C42G G55C] | 0.758 |
| GAGACCGCAACTGAAAAGTTGTTATCACTTGTCGTAAGACAGTTTGGATGGGTTAAAGTTCTGCACGTAGAAGCAAAAGGC [C42G G55A] | 0.853 |
| GAGACCGCAACTGAAAAGTTGTTATCACTTGTCGTAAGACAGTTTGGATGGGTTGAGGTTCTGCACGTAGAAGCAAAAGGC [C42G A57G] | 0.807 |
| GAGACCGCAACTGAAAAGTTGTTATCACTTGTCGTAAGACAGTTTGGATGGGTTGATGTTCTGCACGTAGAAGCAAAAGGC [C42G A57T] | 0.834 |
| GAGACCGCAACTGAAAAGTTGTTATCACTTGTCGTAAGACAGTTTGGATGGGTTGACGTTCTGCACGTAGAAGCAAAAGGC [C42G A57C] | 0.818 |
| GAGACCGCAACTGAAAAGTTGTTATCACTTGTCGTAAGACATTTTGGATGGGTTCAAGTTCTGCACGTAGAAGCAAAAGGC [C42T G55C] | 0.797 |
| GAGACCGCAACTGAAAAGTTGTTATCACTTGTCGTAAGACATTTTGGATGGGTTTAAGTTCTGCACGTAGAAGCAAAAGGC [C42T G55T] | 0.848 |
| GAGACCGCAACTGAAAAGTTGTTATCACTTGTCGTAAGACATTTTGGATGGGTTAAAGTTCTGCACGTAGAAGCAAAAGGC [C42T G55A] | 0.844 |
| GAGACCGCAACTGAAAAGTTGTTATCACTTGTCGTAAGACATTTTTGATGGGTTGAAGTTCTGCACGTAGAAGCAAAAGGC [C42T G46T] | 0.805 |

| Variant | fraction ligated |
| --- | --- |
| GAGACCGCAACTGAAAAGTTGTTATCACTTGTCGTAAGACATTTTCGATGGGTTGAAGTTCTGCACGTAGAAGCAAAAGGC [C42T G46C] | 0.813 |
| GAGACCGCAACTGAAAAGTTGTTATCACTTGTCGTAAGACATTTTAGATGGGTTGAAGTTCTGCACGTAGAAGCAAAAGGC [C42T G46A] | 0.835 |
| GAGACCGCAACTGAAAAGTTGTTATCACTTGTCGTAAGACAGTTTGCATGGGTTGAAGTTCTGCACGTAGAAGCAAAAGGC [C42G G47C] | 0.64 |
| GAGACCGCAACTGAAAAGTTGTTATCACTTGTCGTAAGACAGTTTGTATGGGTTGAAGTTCTGCACGTAGAAGCAAAAGGC [C42G G47T] | 0.68 |
| GAGACCGCAACTGAAAAGTTGTTATCACTTGTCGTAAGACAGTTTGAATGGGTTGAAGTTCTGCACGTAGAAGCAAAAGGC [C42G G47A] | 0.805 |
| GAGACCGCAACTGAAAAGTTGTTATCACTTGTCGTAAGACAGTTTGGGTGGGTTGAAGTTCTGCACGTAGAAGCAAAAGGC [C42G A48G] | 0.821 |
| GAGACCGCAACTGAAAAGTTGTTATCACTTGTCGTAAGACAGTTTGGCTGGGTTGAAGTTCTGCACGTAGAAGCAAAAGGC [C42G A48C] | 0.765 |
| GAGACCGCAACTGAAAAGTTGTTATCACTTGTCGTAAGACAGTTTGGTTGGGTTGAAGTTCTGCACGTAGAAGCAAAAGGC [C42G A48T] | 0.792 |
| GAGACCGCAACTGAAAAGTTGTTATCACTTGTCGTAAGACAGATTGGATGGGTTGAAGTTCTGCACGTAGAAGCAAAAGGC [C42G T43A] | 0.856 |
| GAGACCGCAACTGAAAAGTTGTTATCACTTGTCGTAAGACAGCTTGGATGGGTTGAAGTTCTGCACGTAGAAGCAAAAGGC [C42G T43C] | 0.836 |
| GAGACCGCAACTGAAAAGTTGTTATCACTTGTCGTAAGACAGGTTGGATGGGTTGAAGTTCTGCACGTAGAAGCAAAAGGC [C42G T43G] | 0.827 |
| GAGACCGCAACTGAAAAGTTGTTATCACTTGTCGTAAGACATATTGGATGGGTTGAAGTTCTGCACGTAGAAGCAAAAGGC [C42T T43A] | 0.866 |
| GAGACCGCAACTGAAAAGTTGTTATCACTTGTCGTAAGACATTTTGGATGGGTTGGAGTTCTGCACGTAGAAGCAAAAGGC [C42T A56G] | 0.821 |
| GAGACCGCAACTGAAAAGTTGTTATCACTTGTCGTAAGACATTTTGGATGGGTTGCAGTTCTGCACGTAGAAGCAAAAGGC [C42T A56C] | 0.797 |
| GAGACCGCAACTGAAAAGTTGTTATCACTTGTCGTAAGACATTTTGGATGGGTTGTAGTTCTGCACGTAGAAGCAAAAGGC [C42T A56T] | 0.811 |
| GAGACCGCAACTGAAAAGTTGTTATCACTTGTCGTAAGACAGTTTGGATGGGTTGTAGTTCTGCACGTAGAAGCAAAAGGC [C42G A56T] | 0.797 |
| GAGACCGCAACTGAAAAGTTGTTATCACTTGTCGTAAGACAGTTTGGATGGGTTGGAGTTCTGCACGTAGAAGCAAAAGGC [C42G A56G] | 0.792 |
